Measured values from paper PMC4822050.

Legend:
Test in all cases: FP; ITC: 10 mM HEPES pH 8.0, 100 mM NaCl, 18 C; EMSA: 20 mM HEPES pH 7.5, 100 mM NaCl, 8% glycerol, 1 mM DTT, on ice; pull-down: 20 mM HEPES-NaOH pH 8.0, 100 mM NaC
[1] = biological target: T1, SRA-Spacer-642 (human, UniProt Q96T88 414-642)
T1 sequence: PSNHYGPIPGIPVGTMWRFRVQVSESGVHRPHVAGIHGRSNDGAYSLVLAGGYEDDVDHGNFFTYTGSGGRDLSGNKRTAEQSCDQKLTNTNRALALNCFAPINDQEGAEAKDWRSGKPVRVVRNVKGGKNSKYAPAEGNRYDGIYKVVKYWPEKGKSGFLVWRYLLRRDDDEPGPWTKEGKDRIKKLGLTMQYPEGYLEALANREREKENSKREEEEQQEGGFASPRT

[2] = biological target: T2, UHRF1 full-length (human, UniProt Q96T88 1-793)
T2 sequence: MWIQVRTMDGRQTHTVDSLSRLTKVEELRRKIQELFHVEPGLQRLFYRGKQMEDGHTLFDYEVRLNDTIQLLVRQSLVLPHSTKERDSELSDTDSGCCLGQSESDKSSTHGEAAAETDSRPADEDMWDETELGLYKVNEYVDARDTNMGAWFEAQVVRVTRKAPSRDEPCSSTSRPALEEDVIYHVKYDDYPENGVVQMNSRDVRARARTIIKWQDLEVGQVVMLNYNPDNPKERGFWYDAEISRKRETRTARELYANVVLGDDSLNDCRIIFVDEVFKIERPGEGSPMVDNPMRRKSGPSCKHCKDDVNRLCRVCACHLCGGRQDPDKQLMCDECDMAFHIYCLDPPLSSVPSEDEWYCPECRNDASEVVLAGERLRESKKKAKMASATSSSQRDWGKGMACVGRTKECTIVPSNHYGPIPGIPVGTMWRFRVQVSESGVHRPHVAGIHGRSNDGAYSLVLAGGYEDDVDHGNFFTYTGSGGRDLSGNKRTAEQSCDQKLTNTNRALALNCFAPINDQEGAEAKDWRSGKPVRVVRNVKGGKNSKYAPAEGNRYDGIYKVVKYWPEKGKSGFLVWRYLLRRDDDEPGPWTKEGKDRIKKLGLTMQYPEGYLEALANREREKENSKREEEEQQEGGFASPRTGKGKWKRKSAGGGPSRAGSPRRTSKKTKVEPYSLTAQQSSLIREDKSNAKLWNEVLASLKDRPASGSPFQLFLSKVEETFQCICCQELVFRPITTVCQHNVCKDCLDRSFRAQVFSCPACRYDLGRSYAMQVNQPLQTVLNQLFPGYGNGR

[3] = biological target: T3, UHRF1 delta627-674 (human, UniProt Q96T88 1-793, del627-674)
T3 sequence: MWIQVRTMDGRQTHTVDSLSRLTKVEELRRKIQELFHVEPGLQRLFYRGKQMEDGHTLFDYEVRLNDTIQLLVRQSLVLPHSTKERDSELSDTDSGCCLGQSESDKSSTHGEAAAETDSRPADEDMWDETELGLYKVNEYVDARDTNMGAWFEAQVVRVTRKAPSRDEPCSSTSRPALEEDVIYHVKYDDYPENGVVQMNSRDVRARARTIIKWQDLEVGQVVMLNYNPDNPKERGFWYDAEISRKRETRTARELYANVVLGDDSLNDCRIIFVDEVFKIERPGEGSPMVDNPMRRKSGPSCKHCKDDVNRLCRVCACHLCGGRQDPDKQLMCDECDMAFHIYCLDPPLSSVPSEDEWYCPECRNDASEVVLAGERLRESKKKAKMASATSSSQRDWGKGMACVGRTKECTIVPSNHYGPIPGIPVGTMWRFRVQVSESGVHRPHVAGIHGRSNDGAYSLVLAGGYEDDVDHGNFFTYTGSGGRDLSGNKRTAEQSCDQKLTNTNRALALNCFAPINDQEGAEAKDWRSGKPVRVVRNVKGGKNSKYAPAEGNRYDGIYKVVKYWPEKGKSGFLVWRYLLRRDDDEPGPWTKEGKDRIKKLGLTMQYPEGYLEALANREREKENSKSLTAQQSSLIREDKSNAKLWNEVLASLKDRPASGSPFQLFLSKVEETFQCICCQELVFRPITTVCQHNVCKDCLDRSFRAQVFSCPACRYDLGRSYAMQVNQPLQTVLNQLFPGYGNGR

[4] = biological target: T4, SRA-Spacer-652 (human, UniProt Q96T88 414-652)
T4 sequence: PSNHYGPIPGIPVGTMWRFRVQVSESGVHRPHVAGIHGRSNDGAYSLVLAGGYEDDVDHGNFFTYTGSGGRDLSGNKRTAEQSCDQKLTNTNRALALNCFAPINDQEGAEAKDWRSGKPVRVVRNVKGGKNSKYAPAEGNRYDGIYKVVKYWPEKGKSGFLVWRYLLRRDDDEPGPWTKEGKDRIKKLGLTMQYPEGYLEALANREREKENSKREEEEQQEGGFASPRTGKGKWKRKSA

[5] = biological target: T5, SRA-Spacer-661 (human, UniProt Q96T88 414-661)
T5 sequence: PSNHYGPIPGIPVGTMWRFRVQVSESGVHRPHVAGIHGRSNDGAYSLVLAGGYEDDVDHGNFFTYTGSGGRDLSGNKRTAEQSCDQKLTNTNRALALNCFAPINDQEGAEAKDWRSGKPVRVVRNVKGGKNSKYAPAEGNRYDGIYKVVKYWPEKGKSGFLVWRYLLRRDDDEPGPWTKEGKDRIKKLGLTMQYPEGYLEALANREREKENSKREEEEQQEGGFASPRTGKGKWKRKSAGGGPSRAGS

B1: FAM-12bp-HM-DNA (dsDNA)
DNA 1: CCATGCGCTGAC
DNA 2: GTCAGCGCATGG
modifications: 5-methyl-dC at position 6 of strand 2 (GTCAGXGCATGG)
Kd [1]: 6.11 ± 1.15 µM | Kd [2]: 350 ± 70 nM | Kd [3]: 4.94 ± 1.09 µM | Kd [4]: 1870 ± 330 nM | Kd [5]: 380 ± 60 nM
